Experimental data published in patent US12692310B2, “ASIC1 channel antagonist antibody” (ShanghaiTech University, priority 2019, dated 2026).

T1: hASIC1a-eYFP on CHO-K1 cells (Homo sapiens, UniProt P78348)
T1 construct: overexpress the full-length hASIC1a (1-528 amino acids) protein fused with eYFP; expressed in transfected cells; host or cells: CHO-K1, transient
T1 sequence (P78348 1-528): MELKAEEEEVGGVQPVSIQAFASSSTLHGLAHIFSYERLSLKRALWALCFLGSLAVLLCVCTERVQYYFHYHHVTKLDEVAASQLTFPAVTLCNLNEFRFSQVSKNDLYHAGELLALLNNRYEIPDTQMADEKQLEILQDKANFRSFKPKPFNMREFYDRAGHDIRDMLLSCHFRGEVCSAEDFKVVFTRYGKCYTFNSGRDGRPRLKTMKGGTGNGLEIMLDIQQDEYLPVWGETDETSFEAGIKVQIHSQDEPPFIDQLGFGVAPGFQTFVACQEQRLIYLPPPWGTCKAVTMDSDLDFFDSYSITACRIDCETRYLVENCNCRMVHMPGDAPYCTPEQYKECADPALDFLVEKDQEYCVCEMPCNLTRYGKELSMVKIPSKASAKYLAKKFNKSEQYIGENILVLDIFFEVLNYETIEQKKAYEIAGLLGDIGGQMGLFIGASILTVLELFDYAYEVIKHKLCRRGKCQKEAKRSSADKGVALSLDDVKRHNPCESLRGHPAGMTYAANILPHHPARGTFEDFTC

T2: hASIC1a-eYFP (human, UniProt P78348 1-528)
T2 construct: whole, on cells; On CHO-K1 cells, stably (6H7) or transiently transfected; also called full-length hASIC1a (1-528 amino acids) fused with eYFP; CHO-K1/hASIC1a cells; not shown: C-terminal eYFP fusion
T2 sequence (looked up): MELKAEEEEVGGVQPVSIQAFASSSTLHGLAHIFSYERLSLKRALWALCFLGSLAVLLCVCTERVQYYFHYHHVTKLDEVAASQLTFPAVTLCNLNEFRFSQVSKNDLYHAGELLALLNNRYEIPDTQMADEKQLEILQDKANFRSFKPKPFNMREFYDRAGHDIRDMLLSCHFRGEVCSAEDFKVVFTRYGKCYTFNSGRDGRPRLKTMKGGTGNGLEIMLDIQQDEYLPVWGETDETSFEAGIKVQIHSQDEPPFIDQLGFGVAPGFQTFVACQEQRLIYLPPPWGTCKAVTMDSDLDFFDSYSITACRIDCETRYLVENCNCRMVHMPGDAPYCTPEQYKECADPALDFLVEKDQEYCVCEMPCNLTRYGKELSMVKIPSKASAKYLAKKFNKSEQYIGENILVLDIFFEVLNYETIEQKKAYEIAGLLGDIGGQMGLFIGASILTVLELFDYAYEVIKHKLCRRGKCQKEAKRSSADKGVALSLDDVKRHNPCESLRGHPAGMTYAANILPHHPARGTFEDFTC


Legend:
ΔhASIC1a-nanodiscs = target: T3, ΔhASIC1a-nanodiscs (Homo sapiens, UniProt P78348); assay: Binding affinities of scFv antibodies to ΔhASIC1a-nanodiscs, Octet system; details: scFv format; for Response: Conc. 500 nM; for Response / Kd: Octet system; for affinities for ΔhASIC1a nanodiscs, comparison in words: among ASC01-ASC06
T3 construct: A truncated ASIC1a (amino acids 13-464; ΔhASIC1a) was overexpressed and purified; made in house; host or cells: HEK293F (BacMam baculovirus)
Description: Nanodisc Assembly of hASIC1a Channel. To mimic the lipid bilayer environment of cellular membranes, the purified ΔhASIC1a protein was incorporated into a lipid nanodisc by mixing the ΔhASIC1a protein with the membrane scaffold protein (MSP). and 1,2-dimyristoyl-sn-glycero-3-phosphocholine (DMPC) at a molar ratio of 3:2:65. The associated detergents were removed by gentle agitation with the Bio-Beads SM2 [Bio-Beads:DDM=10:1 (wt/wt); Bio-Rad]overnight. The ΔhASIC1a-embedded nanodiscs were separated from the unassembled nanodisc using the Flag peptide-specific magnetic beads. D'Antona et al., Biochemistry 53:127-134 (2014). The desired ΔhASIC1a nanodisc assembly was further purified and collected using a Superose 6 column (GE Healthcare) in a buffer containing 20 mM Tris, pH 7.5, and 150 mM NaCl. The empty nanodiscs were packaged without the addition of ΔhASIC1a. The composition of the assembled ΔhASIC1a nanodiscs was analyzed by SDS-PAGE, EM, and dynamic light scattering (FIGS. 9A-C, 12A, 12B)
The binding ability of ASC01-ASC06 antibodies in scFv format to ΔhASIC1a-nanodiscs, in comparison to the empty nanodiscs, was evaluated using ELISA. […] Affinities of the antibodies were then measured.

[1] = target: T1, hASIC1a-eYFP on CHO-K1 cells; assay: Immunocytochemistry on CHO-K1/hASIC1a cells; type: cell-based; details: ICC, confocal; for localization to plasma membranes of cells expressing hASIC1a-eYFP: compared to ASC01 and ASC05
Protocol: Cell Membrane Colocalization Studies Using Immunocytochemistry (ICC). Cells (CHO-K1) were seeded onto the poly-D-lysine-coated glass bottom 24-well plates at a concentration of 2×10^5 cells per mL. After 12 h of cultivation, the CHO-K1 cells were transfected with ASIC plasmids by Lipofectin 3000 reagent. Twenty-four hours after transfection, the cells were fixed in 4% paraformaldehyde and incubated for 30 min in a blocking solution (5% goat serum in PBS). The resulting cells were incubated with […] ASC06-IgG1 at 4° C. overnight followed by three PBS washes for 5 min each and incubation with the Alexa555-conjugated goat anti-human secondary antibody (Life Technology). After three additional PBS washes for 5 min each, the nuclei of the cells were stained with DAPI (#10236276001; Roche). The ICC analysis was performed on a laser scanning confocal microscopy (ZEISS LSM710) with a 63×N.A. 1.4 objective at 25° C. Images were collected on a 1,024×1,024-pixel EM-CCD camera. Data acquisition and analyses were performed with the ZEN 2012 professional software.
To understand whether ASC01-ASC06 specifically bind to the ASIC1a protein expressed on cell surface, the binding of the antibodies to CHO-K1/hASIC1a cells was evaluated using immunocytochemistry. The CHO-K1/hASIC1a cells overexpress the full-length hASIC1a (1-528 amino acids) protein fused with eYFP. […] It is likely that ASC01-ASC05 recognize specific ASIC1a confirmations or subpopulations.
The ASC06 antibody was converted into a full length IgG1 form (ASC06-IgG1) for further study. […] The binding of ASC06-IgG1 to CHO-K1/hASIC1a cells was evaluated using immunocytochemistry, in comparison with the ASC06 (scFv format) antibody.

[2] = target: truncated hASIC1a (amino acids 13-464) (human) (UniProt P78348); assay: Octet, scFv format, ΔhASIC1a nanodiscs
[3] = target: truncated hASIC1a (amino acids 13-464) (human) (UniProt P78348); assay: Octet, scFv format at 500 nM, ΔhASIC1a nanodiscs
hASIC1a-eYFP = target: T2, hASIC1a-eYFP; assay: immunocytochemistry, confocal microscopy, CHO-K1 cells expressing hASIC1a-eYFP

T3 sequence (P02647 68-267 partner limits assumed, one chain of several): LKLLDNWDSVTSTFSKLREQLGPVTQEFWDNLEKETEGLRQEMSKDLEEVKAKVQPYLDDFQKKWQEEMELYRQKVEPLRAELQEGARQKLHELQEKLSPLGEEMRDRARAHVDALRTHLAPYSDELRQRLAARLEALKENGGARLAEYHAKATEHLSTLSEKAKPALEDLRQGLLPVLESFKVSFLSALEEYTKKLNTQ

Molecule	Response (ΔhASIC1a-nanodiscs)	Kd (ΔhASIC1a-nanodiscs) [nM]	localization to plasma membranes of cells expressing hASIC1a-eYFP [1]	Kd [2] [nM]	Response [3]	binding result (hASIC1a-eYFP)	affinities for ΔhASIC1a nanodiscs, comparison in words (ΔhASIC1a-nanodiscs)	membrane co-localization with hASIC1a [1]
ASC02: anti-ASIC1a scFv antibody, VH SEQ ID NO: 12 and VL SEQ ID NO: 17 (antibody, V domains shown, scFv linker; Amino acid sequence of ASC02 VH; Amino acid sequence of ASC02 VL) VH: QVQLVQSGAEVKKPGASMKVSCTTSGYTVTGYYIHWLRQAPGQGFEWMGWINPNLGVTNYAQKFQGRVSMTRDPSIKTAYLELSGLRSDDTAMYYCARASTGGIFYDYWGQGTLVTVSS VL: NFMLTQPHSMSESPGKTVTISCTRSSGNIASNYVQWYQQRPGSSPTTVIYDDNQRPSGVPDRFSGSIDSISNSASLTISGLKTEDEADYYCQSYDSSSVIFGGGTKLTVLG	0.2888	262	localized more to the plasma membranes					
ASC03: anti-ASIC1a scFv antibody, VH SEQ ID NO: 22 and VL SEQ ID NO: 27 (antibody, V domains shown, scFv linker; Amino acid sequence of ASC03 VH; Amino acid sequence of ASC03 VL) VH: QVQLVESGAEVKKPGSSVKVSCKASGGNFRKYSISWVRQAPGQGLEWMGWISAYNGNTNYAQKLQGRVTMTTDTSTSTAYMELRSLRSDDTAVYYCARDFDPYYDAFDIWGQGTTVTVSS VL: QSALTQPASVSGSPGQSITISCTGTSSDVGAYNYVSWYQQHPGKAPKLMIYDVSNRLSGVSNRFSGSKSGNRASLTISGLQAEDEADYYCSSYRSGNSLAFGGGTKLTVLG	0.2693	259	localized more to the plasma membranes					
ASC01 (scFv, V domains shown, also called ASC01 scFv; ASC01 (scFv format)) VH: QVQLVETGPRLVKPSQTLSLTCTVSGGSINSGGYYWGWIRQHSGKGLEWIGYIYPRGSSYYNPSLRSRVTISADTSRNNFSLKLTSVTAADTAVYYCARVGYTGAFDIWGQGTLVTVSS VL: QAVLTQPSSVSAAPGQKVTISCSGGNSNIGNNYVSWYQQLPGTAPKLLIYDNNKRPSGIPDRFSGSKSGTAATLGITGLQTGDEADYYCGTWDSSLSAGVFGEGTQLTVLG				45.1	0.431	binds		
ASC01: anti-ASIC1a scFv antibody, VH SEQ ID NO: 2 and VL SEQ ID NO: 7 (antibody, V domains shown, scFv linker; Amino acid sequence of ASC01 VH; Amino acid sequence of ASC01 VL) VH: QVQLVETGPRLVKPSQTLSLTCTVSGGSINSGGYYWGWIRQHSGKGLEWIGYIYPRGSSYYNPSLRSRVTISADTSRNNFSLKLTSVTAADTAVYYCARVGYTGAFDIWGQGTLVTVSS VL: QAVLTQPSSVSAAPGQKVTISCSGGNSNIGNNYVSWYQQLPGTAPKLLIYDNNKRPSGIPDRFSGSKSGTAATLGITGLQTGDEADYYCGTWDSSLSAGVFGEGTQLTVLG	0.431	45.1						
ASC04: anti-ASIC1a scFv antibody, VH SEQ ID NO: 32 and VL SEQ ID NO: 37 (antibody, V domains shown, scFv linker; Amino acid sequence of ASC04 VH; Amino acid sequence of ASC04 VL) VH: QVQLVQSGAEVKKPGSSVKVSCKASGGTFSTYAINWVRQAPGQGLEWMGWMNPNSGNTGYAQKFQGRVTMTRNTSISTAYMELSSLRSEDTAVYYCARYSYGMDVWGQGTTVTVSS VL: QAVLTQPSSLSASPGASVSLTCTLRSGINVGAYRIYWYQQKPGSPPQFLLRYKSDSDKQQGSGVPSRFSGSRDASANAGILLISGLRSEDEADYYCAIWHSSAWVFGGGTKLTVLG	0.995	20.8	localized more to the plasma membranes				strongest affinities	
ASC06 (scFv, V domains shown) VH: QVQLQQSGGGLVQPGGSLRLSCAASGFTFSSYAMSWVRQAPGKGLEWVSAISGSGGSTYYADSVKGRFTISRDNSKNTLYLQMNSLRAEDTAVYYCAKDSFYGYSKGDWGQGTLVTVSS VL: QSALTQPASVSGSPGQSITISCTGTSSDVGAYNYVSWYQQQPGKAPKLMIYGVSNRPSGVSNRFSGSKSGNAASLTISGLQAEDEADYYCSSYTSSSTYVFGTGTKLTVLG				21.7	0.571			
ASC06: anti-ASIC1a scFv antibody, VH SEQ ID NO: 52 and VL SEQ ID NO: 57 (antibody, V domains shown, scFv linker; Amino acid sequence of ASC06 VH; Amino acid sequence of ASC06 VL) VH: QVQLQQSGGGLVQPGGSLRLSCAASGFTFSSYAMSWVRQAPGKGLEWVSAISGSGGSTYYADSVKGRFTISRDNSKNTLYLQMNSLRAEDTAVYYCAKDSFYGYSKGDWGQGTLVTVSS VL: QSALTQPASVSGSPGQSITISCTGTSSDVGAYNYVSWYQQQPGKAPKLMIYGVSNRPSGVSNRFSGSKSGNAASLTISGLQAEDEADYYCSSYTSSSTYVFGTGTKLTVLG	0.5712	21.7	localized more to the plasma membranes				strongest affinities	more co-localization with hASIC1a-eYFP
ASC05 (scFv, V domains shown, also called ASC05 scFv; ASC05 (scFv format)) VH: QVQLVESGAEVKKPGASVRVSCKASGYSFTNYYMHWVRQAPGQGLEWMGIISPSGRSTSFAQKFQGRVTMTRDTSTSTVYMHLSSLRSDDTAVYYCARGAWSTDAFDIWGQGTTVTVSS VL: QSALTQPASVSGSPGQSITISCTGTSSDVGSYNLVSWYQQHPGKAPKLMIYEGSKRPSGVSNRFSGSKSGNTASLTISGLQAEDEAEYHCSSFTGKGYVFGTGTKLTVLG				137	0.502	binds		
ASC05: anti-ASIC1a scFv antibody, VH SEQ ID NO: 42 and VL SEQ ID NO: 47 (antibody, V domains shown, scFv linker; Amino acid sequence of ASC05 VH; Amino acid sequence of ASC05 VL) VH: QVQLVESGAEVKKPGASVRVSCKASGYSFTNYYMHWVRQAPGQGLEWMGIISPSGRSTSFAQKFQGRVTMTRDTSTSTVYMHLSSLRSDDTAVYYCARGAWSTDAFDIWGQGTTVTVSS VL: QSALTQPASVSGSPGQSITISCTGTSSDVGSYNLVSWYQQHPGKAPKLMIYEGSKRPSGVSNRFSGSKSGNTASLTISGLQAEDEAEYHCSSFTGKGYVFGTGTKLTVLGGLG	0.5016	137						
